Experimental data from patent publication US20210024615A1 (LIVERPOOL SCHOOL OF TROPICAL MEDICINE, published 2021).

B1: dectin-2 (receptor, UniProt Q6EIG7 46-209, looked up)
chain: TYGETGKRLSELHSYHSSLTCFSEGTKVPAWGCCPASWKSFGSSCYFISSEEKVWSKSEQNCVEMGAHLVVFNTEAEQNFIVQQLNESFSYFLGLSDPQGNNNWQWIDKTPYEKNVRFWHLGEPNHSAEQCASIVFWKPTGWGWNDVICETRRNSICEMNKIYL
notes: also called dec-2
B2: tetrameric human DC-SIGN (receptor, UniProt Q9NNX6 66-404, looked up)
chain: SISQEQSRQDAIYQNLTQLKAAVGELSEKSKLQEIYQELTQLKAAVGELPEKSKLQEIYQELTRLKAAVGELPEKSKLQEIYQELTWLKAAVGELPEKSKMQEIYQELTRLKAAVGELPEKSKQQEIYQELTRLKAAVGELPEKSKQQEIYQELTRLKAAVGELPEKSKQQEIYQELTQLKAAVERLCHPCPWEWTFFQGNCYFMSNSQRNWHDSITACKEVGAQLVVIKSAEEQNFLQLQSSRSNRFTWMGLSDLNQEGTWQWVDGSPLLPSFKQYWNRGEPNNVGEEDCAEFSGNGWNDDKCNLAKFWICKKSAASCSRDEEQFLSPAPATPNPPPA
B3: clec-4a (receptor, UniProt Q9UMR7 70-237, looked up)
chain: QKYSQLLEKKTTKELVHTTLECVKKNMPVEETAWSCCPKNWKSFSSNCYFISTESASWQDSEKDCARMEAHLLVINTQEEQDFIFQNLQEESAYFVGLSDPEGQRHWQWVDQTPYNESSTFWHPREPSDPNERCVVLNFRKSPKRWGWNDVNCLGPQRSVCEMMKIHL
notes: also called DCIR
B4: Siglec-3 (receptor, UniProt P20138 18-259, looked up)
chain: DPNFWLQVQESVTVQEGLCVLVPCTFFHPIPYYDKNSPVHGYWFREGAIISRDSPVATNKLDQEVQEETQGRFRLLGDPSRNNCSLSIVDARRRDNGSYFFRMERGSTKYSYKSPQLSVHVTDLTHRPKILIPGTLEPGHSKNLTCSVSWACEQGTPPIFSWLSAAPTSLGPRTTHSSVLIITPRPQDHGTNLTCQVKFAGAGVTTERTIQLNVTYVPQNPTTGIFPGDGSGKQETRAGVVH
B5: CD23 (receptor, UniProt P06734 48-321, looked up)
chain: DTTQSLKQLEERAARNVSQVSKNLESHHGDQMAQKSQSTQISQELEELRAEQQRLKSQDLELSWNLNGLQADLSSFKSQELNERNEASDLLERLREEVTKLRMELQVSSGFVCNTCPEKWINFQRKCYYFGKGTKQWVHARYACDDMEGQLVSIHSPEEQDFLTKHASHTGSWIGLRNLDLKGEFIWVDGSHVDYSNWAPGEPTSRSQGEDCVMMRGSGRWNDAFCDRKLGAWVCDRLATCTPPASEGSAESMGPDSRPDPDGRLPTPSAPLHS
B6: dectin-1 (receptor, UniProt Q9BXN2-2 66-201, looked up)
chain: TMGVLSSPCPPNWIIYEKSCYLFSMSLNSWDGSKRQCWQLGSNLLKIDSSNELGFIVKQVSSQPDNSFWIGLSRPQTEVPWLWEDGSTFSSNLFQIRTTATQENPSPNCVWIHVSVIYDQLCSVPSYSICEKKFSM
notes: also called dec-1
B7: clec-4d (receptor, UniProt Q8WXI8 39-215, looked up)
chain: CLVTHHNFSRCKRGTGVHKLEHHAKLKCIKEKSELKSAEGSTWNCCPIDWRAFQSNCYFPLTDNKTWAESERNCSGMGAHLMTISTEAEQNFIIQFLDRRLSYFLGLRDENAKGQWRWVDQTPFNPRRVFWHKNEPDNSQGENCVVLVYNQDKWAWNDVPCNFEASRICKIPGTTLN
B8: Siglec-4 (receptor, UniProt P20916 20-516, looked up)
chain: GHWGAWMPSSISAFEGTCVSIPCRFDFPDELRPAVVHGVWYFNSPYPKNYPPVVFKSRTQVVHESFQGRSRLLGDLGLRNCTLLLSNVSPELGGKYYFRGDLGGYNQYTFSEHSVLDIVNTPNIVVPPEVVAGTEVEVSCMVPDNCPELRPELSWLGHEGLGEPAVLGRLREDEGTWVQVSLLHFVPTREANGHRLGCQASFPNTTLQFEGYASMDVKYPPVIVEMNSSVEAIEGSHVSLLCGADSNPPPLLTWMRDGTVLREAVAESLLLELEEVTPAEDGVYACLAENAYGQDNRTVGLSVMYAPWKPTVNGTMVAVEGETVSILCSTQSNPDPILTIFKEKQILSTVIYESELQLELPAVSPEDDGEYWCVAENQYGQRATAFNLSVEFAPVLLLESHCAAARDTVQCLCVVKSNPEPSVAFELPSRNVTVNESEREFVYSERSGLVLTSILTLRGQAQAPPRVICTARNLYGAKSLELPFQGAHRLMWAKIGP
notes: also called MAG

Biological target: T1, IgG1-Fc (human, UniProt P01857 104-330 = IgG part)
T1 construct: domain: Fc
Test: ELISA

Binder | binding result
B1 | no binding
B2 | no binding
B3 | no binding
B4 | no binding
B5 | no binding
B6 | no binding
B7 | no binding
B8 | no binding
